Measurements reported in publication PMC5231390, “Two-Component Signaling System VgrRS Directly Senses Extracytoplasmic and Intracellular Iron to Control Bacterial Adaptation under Iron Depleted Stress” (PLoS Pathogens, 2016).

How the values were obtained:
[1] = target: T1, VgrS (full-length, inverted membrane vesicles) (Xanthomonas campestris, UniProt Q8P666); conditions: 100 μM ATP with 10 μCi [γ-32P]ATP, 5 mM MgCl2, pH 7.8, 28°C, labelled compound
T1 construct: gene colS

[2] = target: VgrR (Xanthomonas campestris pv. campestris); experiment: MST
[3] = target: phosphorylated VgrR (phosphorylated by acetyl phosphate) (Xanthomonas campestris pv. campestris); experiment: MST
VgrR = target: T2, VgrR (Xanthomonas campestris, UniProt Q7CLQ6); experiment: phosphorylation of VgrR seen as raised VgrS affinity in MST; format: biochemical; conditions: phosphodonor; indirect read-out (VgrR-VgrS binding)
T2 construct: gene colR; full-length, C-terminal His6, pET30a in E. coli BL21(DE3), Ni-NTA purified

[4] = target: VgrR (ColR), unphosphorylated (Xanthomonas campestris pv. campestris, UniProt B0RPP4 1-225); experiment: MST; 10 mM MgCl2; EMSA: 10 mM Tris-HCl pH 7.5, 50 mM KCl, 1 mM DTT, poly(dI-dC), room temp; MST: 50 mM Tris-HCl pH 7.4, 150 mM NaCl, 10 mM MgCl2, 0.05% Tween-20; conditions: protein: recombinant; tags: C-terminal His6 (pET30a); chain copies: 2; label: 5'-FAM on one strand

Molecule: Nc1ncnc2c1ncn2[C@@H]1O[C@H](COP(=O)(O)OP(=O)(O)OP(=O)(O)O)[C@@H](O)[C@H]1O [ATP]
- in vitro autophosphorylation, SDS-PAGE autoradiography [1]: VgrS has an autokinase activity by phosphorylating itself in the presence of ATP

Molecule: VgrS, membrane-embedded, full-length (receptor)
- Kd [2]: 4300 nM
- Kd [3]: 260 nM

Molecule: CC(=O)OP(=O)(O)O [acetyl phosphate]
- phosphorylation of VgrR seen as raised VgrS affinity in MST (VgrR): Phosphorylation of VgrR by acetyl phosphate significantly increased the VgrR-VgrS binding affinity

B1: PtdvA 50 bp, 5'-FAM (MST) (dsDNA)
DNA 1: GCCCGATTTCACGTCTTTCTTCTTTTTCATTAACGGGACTTTAATTCCTG
DNA 2: CAGGAATTAAAGTCCCGTTAATGAAAAAGAAGAAAGACGTGAAATCGGGC
- Kd [4]: 189 ± 6.22 nM
